Results: the supplement of paper PMC10567573

B1: TRIM35 (parent)
chain: WEVQVSPTCPVCKDRASPADLRTN

Variants of: B1
Test: protein stability index of a GFP-peptide fusion (GPS, HEK-293T) (PSI 1-6); higher = more stable
Conditions: c terminus: a fixed tail appended
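Further: lentivirally expressed fusions sorted by FACS into six bins by GFP to DsRed ratio, PSI derived from sequencing read proportions per bin multiplied by bin number.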

Protein stability index: each site, then its substitutions
E2: N 2.3, G 2.56, D 2.2, S 2.58, T 2.02, M 1.41, W 1.68, P 2.12, A 2.48, F 1.72, I 2.45, C 2.46, V 2.21, R 1.98
L21: V 3.33, T 2.62, N 3.21, A 3.04, F 2, R 2.37, W 2.62, E 2.98, G 2.04, C 3.26, H 2.54, Q 2.5, I 2.59, S 2.58
D20: V 1.97, L 2.15, N 2.2, M 1.71, G 1.85, H 1.66, S 1.68, K 2.08, C 1.91, E 2.95, A 2.02, P 1.85
W1: I 2.08, T 2.79, R 3.66, K 3.54, G 2.92, N 3.23, V 3.4, C 3, F 2.85, D 3.25, Y 2.65, L 3.13, P 3.29, S 2.6, A 3.05
N24: L 1.71, Q 2.81, I 1.7, F 1.55, V 1.19, Y 1.6, S 2.57, E 2.29, R 2.74, A 2.29, P 2.47, K 3.12, M 1.55, C 2.43, H 1.42, D 3.14
P7: M 1.33, L 1.9, N 1.8, Y 2.31, Q 2.43, H 2.2, T 1.58, S 2.5, W 2.58, R 2.19, V 1.32
C9: E 4.49, Q 4.56, G 3.97, I 3.53, L 1.98, H 3.74, N 4.34, D 4.9, P 3.11, F 2.85, T 3.94, W 2.52, A 4.38, Y 3.5, K 4.72, M 3.15
C12: H 3.46, A 4.59, D 4.14, M 4.44, G 3.7, P 3.86, T 4.54, V 3.89, E 4.81, F 3.29, K 3.88, I 3.4
D14: T 1.83, A 2.49, K 2.54, W 2.71, M 1.75, P 1.9, H 1.81, L 2.62, S 2.5, C 1.03, E 2.75, V 1.61, Y 1.62, F 2.81
T23: Q 2.58, F 1.82, D 3.45, E 2.83, A 2.28, N 2.74, P 2.08, I 2.18, K 3.12, L 3.09, Y 1.73, W 2.02, H 2.93, V 2.06, S 2.26
A16: E 2.78, F 1.91, D 2.26, Q 2.96, I 1.28, G 2.15, W 1.85, L 1.82, C 1.41, T 2.79, S 2.42, N 1.84, P 2.29, V 2.49
S17: M 2.01, L 2.75, D 3.31, N 2.51, V 2.23, T 2.05, W 3.4, C 1.81, I 2.66, F 2.19, A 2.48, E 3.89, Q 2.84, Y 4.01, H 2.08
V3: I 2.89, Q 2.96, H 3.16, P 2.49, W 2.8, M 2.79, N 3.38, R 2.31, D 3.35, Y 3.35, S 3.38, L 2.55, G 2.29, T 3.5, F 2.39
R15: V 2.74, M 2.04, P 3.31, L 2.47, N 2.48, T 2.54, W 2.53, C 2.26, I 2.48, F 2.07, A 3.22, Y 2.34, S 3.07, H 2.46, Q 2.54, E 3.43
V11: S 1.79, M 1.23, W 2.88, N 2.9, I 2.24, D 3.64, H 1.96, F 1.78, Q 2.3, K 3.7, C 1.68, R 2.93, P 3.86, Y 1.51, G 2.89
V5: S 2.94, Y 2.58, A 2.15, K 2.98, G 2.48, Q 3.37, M 2.41, W 2.4, P 1.68, L 2.29, D 4.04, T 3.03, I 2.27
A19: H 2.24, K 2.96, R 1.54, N 1.91, C 2.31, F 2.99, S 1.78, L 2.12, M 2.42, D 3.38, P 2.02, G 2.24
T8: P 2.92, F 1.85, W 2.56, L 1.88, V 1.66, A 3.17, E 3.07, I 2, N 2.79, D 3.42, K 2.39, S 2.37, G 2.48
P10: R 2.42, W 2.51, L 2.65, E 2.23, F 2.89, T 2.38, N 2.58, M 2.46, C 3.25, Y 2.29, S 3.32, A 1.25, Q 3.01, I 2.34, V 2.02, H 2.81
S6: D 2.84, A 1.87, R 2.5, E 1.71, Y 2.07, H 3.03, G 2.54, Q 2.53, F 2.4, K 1.85, M 1.89, L 2.6, W 1.94, N 3.46, T 2.22
Q4: S 1.87, V 2, Y 3.38, C 2.2, N 2.73, E 2.08, R 1.9, K 2.07, L 2.08
R22: F 2.22, T 2.91, E 4.1, G 2.03, Y 2.49, L 2.45, D 3.8, C 2.91, V 3.75, S 2.91, H 2.54, K 3.34, P 3.74, I 2.7
K13: Y 2.05, G 1.7, V 2.7, D 2, Q 2.66, F 1.94, T 2.31, L 3.25, I 2.17, R 1.46, S 2.19, W 2.09
P18: N 2.39, Q 2.13, S 2.51, R 3.2, Y 2.15, V 2.57, T 2.57, D 1.99, A 2.04, K 2.52, I 2.87, F 1.95, H 1.6, M 1.99, G 2.51, W 1.39
